{
  "source": "patent US20220213176A1",
  "about": "(SHANGHAITECH UNIVERSITY, published 2022)",
  "key": {"[1]": {"target": "spike of authentic SARS-CoV-2 virus BetaCoV/Australia/VIC01/2020 (SARS-CoV-2)", "assay": "cell-based or functional assay"}, "[2]": {"target": "T1, HCoV-HKU1 spike (HCoV-HKU1, UniProt Q5MQD0 13-1356)", "T1 construct": "whole, on cells", "T1 sequence": "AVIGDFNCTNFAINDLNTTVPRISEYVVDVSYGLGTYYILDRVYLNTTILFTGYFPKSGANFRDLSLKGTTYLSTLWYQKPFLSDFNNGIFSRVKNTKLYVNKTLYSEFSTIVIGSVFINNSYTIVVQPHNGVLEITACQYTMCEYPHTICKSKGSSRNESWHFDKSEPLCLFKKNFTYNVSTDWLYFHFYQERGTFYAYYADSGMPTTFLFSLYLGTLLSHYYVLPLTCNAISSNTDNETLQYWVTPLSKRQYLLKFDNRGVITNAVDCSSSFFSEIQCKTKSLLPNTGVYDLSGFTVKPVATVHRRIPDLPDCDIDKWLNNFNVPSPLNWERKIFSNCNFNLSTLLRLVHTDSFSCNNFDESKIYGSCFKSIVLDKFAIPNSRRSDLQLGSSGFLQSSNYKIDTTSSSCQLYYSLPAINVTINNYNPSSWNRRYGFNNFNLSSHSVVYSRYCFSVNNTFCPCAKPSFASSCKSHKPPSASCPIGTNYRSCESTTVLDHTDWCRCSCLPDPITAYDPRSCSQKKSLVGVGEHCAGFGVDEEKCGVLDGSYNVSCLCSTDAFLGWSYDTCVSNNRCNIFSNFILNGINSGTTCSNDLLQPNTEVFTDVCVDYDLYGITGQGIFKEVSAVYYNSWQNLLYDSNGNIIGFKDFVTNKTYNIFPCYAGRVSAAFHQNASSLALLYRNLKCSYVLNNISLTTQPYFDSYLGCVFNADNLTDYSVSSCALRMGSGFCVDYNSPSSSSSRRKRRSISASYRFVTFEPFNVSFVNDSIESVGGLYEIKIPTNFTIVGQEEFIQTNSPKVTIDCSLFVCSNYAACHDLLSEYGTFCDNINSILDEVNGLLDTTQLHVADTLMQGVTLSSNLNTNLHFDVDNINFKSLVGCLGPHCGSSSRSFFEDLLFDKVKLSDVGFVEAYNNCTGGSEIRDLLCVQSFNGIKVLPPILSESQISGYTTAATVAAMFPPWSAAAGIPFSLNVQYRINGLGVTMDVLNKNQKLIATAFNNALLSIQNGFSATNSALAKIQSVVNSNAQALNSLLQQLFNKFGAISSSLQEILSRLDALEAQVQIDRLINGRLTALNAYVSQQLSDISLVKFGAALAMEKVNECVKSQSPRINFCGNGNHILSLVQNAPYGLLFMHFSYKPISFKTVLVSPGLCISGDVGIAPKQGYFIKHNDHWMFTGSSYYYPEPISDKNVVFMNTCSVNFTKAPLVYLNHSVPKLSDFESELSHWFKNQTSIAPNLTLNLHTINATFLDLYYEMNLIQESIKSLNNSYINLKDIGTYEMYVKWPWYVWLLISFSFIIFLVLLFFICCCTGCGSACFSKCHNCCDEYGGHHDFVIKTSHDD", "assay": "FACS, transfected HEK293T cells, IgG4 antibody"}, "[3]": {"target": "T2, HCoV-NL63 spike (HCoV-NL63, UniProt Q6Q1S2 19-1356)", "T2 construct": "whole, on cells", "T2 sequence": "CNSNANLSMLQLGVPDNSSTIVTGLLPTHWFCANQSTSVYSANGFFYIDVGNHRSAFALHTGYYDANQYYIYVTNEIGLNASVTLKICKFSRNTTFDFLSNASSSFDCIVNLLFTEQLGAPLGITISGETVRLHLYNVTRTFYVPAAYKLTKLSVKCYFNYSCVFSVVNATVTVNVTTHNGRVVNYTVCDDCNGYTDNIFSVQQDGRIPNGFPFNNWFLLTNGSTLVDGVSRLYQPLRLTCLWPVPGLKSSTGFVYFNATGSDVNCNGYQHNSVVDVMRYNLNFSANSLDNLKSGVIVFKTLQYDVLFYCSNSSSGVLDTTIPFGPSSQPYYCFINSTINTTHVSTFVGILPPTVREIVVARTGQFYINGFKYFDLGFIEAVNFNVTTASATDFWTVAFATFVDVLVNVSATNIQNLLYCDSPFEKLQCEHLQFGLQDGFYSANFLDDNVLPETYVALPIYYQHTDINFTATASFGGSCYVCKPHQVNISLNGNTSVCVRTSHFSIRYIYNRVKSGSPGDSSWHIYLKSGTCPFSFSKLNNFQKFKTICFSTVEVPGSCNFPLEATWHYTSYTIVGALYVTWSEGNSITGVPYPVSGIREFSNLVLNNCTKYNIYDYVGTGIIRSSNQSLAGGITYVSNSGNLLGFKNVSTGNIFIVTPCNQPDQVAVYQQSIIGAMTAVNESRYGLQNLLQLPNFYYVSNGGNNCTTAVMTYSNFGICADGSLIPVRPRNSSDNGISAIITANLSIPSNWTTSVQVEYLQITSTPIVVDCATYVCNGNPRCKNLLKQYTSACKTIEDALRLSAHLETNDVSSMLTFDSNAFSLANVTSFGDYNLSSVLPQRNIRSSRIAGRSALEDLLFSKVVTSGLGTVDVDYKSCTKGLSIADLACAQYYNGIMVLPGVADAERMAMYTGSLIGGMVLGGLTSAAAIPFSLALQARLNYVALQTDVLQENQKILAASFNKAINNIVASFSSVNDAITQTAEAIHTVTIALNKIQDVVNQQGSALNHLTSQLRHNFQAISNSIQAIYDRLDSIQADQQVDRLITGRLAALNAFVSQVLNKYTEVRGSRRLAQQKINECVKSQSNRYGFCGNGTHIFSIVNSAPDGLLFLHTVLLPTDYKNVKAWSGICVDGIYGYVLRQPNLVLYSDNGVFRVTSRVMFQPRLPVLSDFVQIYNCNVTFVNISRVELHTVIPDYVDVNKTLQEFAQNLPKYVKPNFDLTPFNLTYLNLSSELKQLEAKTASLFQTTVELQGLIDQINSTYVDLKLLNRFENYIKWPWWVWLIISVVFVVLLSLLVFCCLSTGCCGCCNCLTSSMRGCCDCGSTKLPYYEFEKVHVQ", "assay": "FACS, transfected HEK293T cells, IgG4 antibody"}},
  "data": [
    {"binder": "S-B8 (antibody, V domains shown, also called S-B8 dimer) VH: QVQLVQSGGGLIQPGGSLRLSCAASGFTVSLSHMNWVRQAPGKGLEWVSITYGDGNSDYADSVKGRFTISRDNSKNTLYLQMNSLRAEDTAVYYCAREYYYGMDVWGQGTTVTVSS VL: not shown", "values": [
      {"measurement": "NT50, authentic virus B VIC01 neutralization", "setting": "[1]", "value": 0.88, "unit": "nM"},
      {"measurement": "binding result", "setting": "[2]", "value": "no binding"},
      {"measurement": "binding result", "setting": "[3]", "value": "no binding"}
    ]},
    {"binder": "S-D4 (antibody, V domains shown, also called S-D4 dimer; S-D4 IgG4) VH: QVQLQESGGGVVQPGRSLRLSCEVSGFTFSDYGMHWVRQAPGKGLEWVAVIWSEGSTEYYADSVKGRFTISRDNSKDTLYLQMNSLRAEDTAVYYCARPGYPTSTDRSPAAAGARQYYYYGMDVWGQGTTVTVSS VL: NFMLTQPHSVSESPGKTVTISCTRSGGSGAANYVQWYQQRPGSSPTTLIYEDSRRPPGVPDRFSGSVDTSSNSASLTISGLQTEDEADYYCQSYDSSNHVVFGGGTKLTVLG", "values": [
      {"measurement": "NT50, authentic virus B VIC01 neutralization", "setting": "[1]", "value": 2.04, "unit": "nM"},
      {"measurement": "binding result", "setting": "[2]", "value": "no binding"},
      {"measurement": "binding result", "setting": "[3]", "value": "no binding"}
    ]},
    {"binder": "S-E6 (antibody, V domains shown, also called S-E6 dimer; dimer S-E6) VH: QVTLRESGPGLVKPSETLSLTCAVSGGSLSSVNYYWSWIRQHPGKGLEWIGYIYYSGSTNYNPSLKSRVTMSLDTSKNQFSLKLSSVTAADTAVYYCATPGAIMGALHIWGQGTLVTVSS VL: QAVLTQPSSASSTPGQRVIISCSGSSSNIGSNTVSWYQQVPGAAPKLLIYFDYRRPSGVPDRFSGTRSGTSASLGISGLQSEDEADYYCAAWDDSLSAWVFGRGTKLTVLG", "values": [
      {"measurement": "NT50, authentic virus B VIC01 neutralization", "setting": "[1]", "value": 0.15, "unit": "nM"},
      {"measurement": "binding result", "setting": "[2]", "value": "no binding"},
      {"measurement": "binding result", "setting": "[3]", "value": "no binding"}
    ]}
  ]
}
